Experimental data taken from paper PMC5967863.

Biological target: full-length human TRPC3 (human) (UniProt Q13507)
Assay: cryo-EM structure; purified TRPC3 at 5 mg/mL in 20 mM Tris 8.0, 500 mM NaCl, 1 mM EDTA, 0.1% digitonin; single-particle reconstruction with C4 symmetry, 3.3 Å

stoichiometry N: 4
Substance: full-length human TRPC3 (from UniProt Q13507 1-921) (natural protein)
